Consider 1 substance from patent publication US20160361280A1.

As usually defined, the koff is the first-order rate constant of dissociation. A high value points to fast dissociation. Usually Kd stands for the concentration at which binding is half-saturated. The low end stands for a tighter complex, the high end for a looser complex. What is called kon is the rate constant with which the complex forms.

For assay [1], the target named is hCD1d/β-2-microglobulin refolded with α-GalCer 1 (human) (UniProt P15813). In words: SPR (BIAcore), kinetics; TCR injected over immobilised biotinylated hCD1d-lipid.
Assay [2] deals with hCD1d/β-2-microglobulin refolded with ThrCer 2 (human) (UniProt P15813). The description is as above.
Assay [3] addresses hCD1d/β-2-microglobulin refolded with α-GalCer thioamide 6 (human) (UniProt P15813). The description is as above.
Assay [4] deals with hCD1d/β-2-microglobulin refolded with α-GalCer carbamate 8 (human) (UniProt P15813). Described as above.
In assay [5] the target is hCD1d/β-2-microglobulin refolded with ThrCer carbamate 11 (human) (UniProt P15813). The description is as above.
For assay [6], the target named is hCD1d/β-2-microglobulin refolded with ThrCer thioamide 9 (human) (UniProt P15813). The description is as above.
Assay [7] has as its target hCD1d/β-2-microglobulin refolded with α-GalCer 1 (human) (UniProt P15813). The experiment in a line: SPR (BIAcore), equilibrium binding; TCR injected over immobilised biotinylated hCD1d-lipid. For orientation: In SPR one partner is held on a chip, and binding of the other changes the refractive index at the surface.
The target of assay [8] is hCD1d/β-2-microglobulin refolded with ThrCer 2 (human) (UniProt P15813). The assay is described as above.
In assay [9] the target is hCD1d/β-2-microglobulin refolded with α-GalCer thioamide 6 (human) (UniProt P15813). The description is as above.
Assay [10] concerns the target hCD1d/β-2-microglobulin refolded with α-GalCer carbamate 8 (human) (UniProt P15813). Described as above.
The target of assay [11] is hCD1d/β-2-microglobulin refolded with ThrCer carbamate 11 (human) (UniProt P15813). The assay is described as above.
Assay [12] has as its target hCD1d/β-2-microglobulin refolded with ThrCer thioamide 9 (human) (UniProt P15813). The description is as above.
For assay [13], the target named is hCD1d/β-2-microglobulin refolded with α-GalCer 1 (human) (UniProt P15813). In words: SPR (BIAcore); calculated from experimental koff and Kd.
Assay [14] has as its target hCD1d/β-2-microglobulin refolded with ThrCer 2 (human) (UniProt P15813). Described as above.
Assay [15] has as its target hCD1d/β-2-microglobulin refolded with α-GalCer thioamide 6 (human) (UniProt P15813). The assay is described as above.
The target of assay [16] is hCD1d/β-2-microglobulin refolded with α-GalCer carbamate 8 (human) (UniProt P15813). The assay is described as above.
Assay [17] has as its target hCD1d/β-2-microglobulin refolded with ThrCer carbamate 11 (human) (UniProt P15813). The description is as above.
For assay [18], the target named is hCD1d/β-2-microglobulin refolded with ThrCer thioamide 9 (human) (UniProt P15813). The description is as above.

With “soluble human iNKT cell T cell receptor (Vα24/Vβ11 heterodimer) (TCR)”, the koff turned out to be 0.565 s⁻¹ in assay [1]; 1.18 s⁻¹ in assay [2]; 0.537 s⁻¹ in assay [3]; 0.919 s⁻¹ in [4]; 1.19 s⁻¹ in [5]; 1.88 s⁻¹ in assay [6]. For the same substance, the dissociation constant Kd in [7] was 2.19 µM; in assay [8], 4.57 µM; in [9], 4.2 µM; in assay [10] it was 1.72 µM; in assay [11], 4.6 µM; in [12], 36.1 µM. In addition, the kon in [13] was 258000 M⁻¹ s⁻¹; in assay [14], 258000 M⁻¹ s⁻¹; in assay [15], 128000 M⁻¹ s⁻¹; in assay [16] it was 534000 M⁻¹ s⁻¹; in assay [17] it was 259000 M⁻¹ s⁻¹; in assay [18], 520000 M⁻¹ s⁻¹.
